# Assay results from the NTF2 design screens of Basanta et al. (2020).
# Test: protease stability score; higher = more stable; yeast display proteolysis, trypsin and chymotrypsin;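 further: log10 excess protease needed over predicted unfolded state with 0 meaning unfolded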
row,Sequence,protease stability score
1,DDEKLTTVLKELMKAFEKGDNKKFVDLLDKDVTIDYGDKKVHGRDEATEVFHKIRRQVDHVQVSDMKFENGRASIRATLHFNGKNMEVTFEAVIKNGRIKHAQVEVRDPDELRKMES,1.03
2,DDEKQAHRAFEEWERALRTGNEEDLKRLADENVQVQVGDKQLDGREEVVKWMLDQAERVDHIQIDIKHLRIQNGRVEVNIIIQNNHNGQNQTHTMVVVMRNHNGNLYISDVQRR,1.31
3,DDEKQHTIAKQLVEVLQQNDPDQQRDMVDENANIDIGDKTYQGQEDARKAMDELRRQIDHLTVTSFNVHNGRVEIRARARVNGTDVTVHIEAQLHNGRVKKMKIKYG,-0.196
4,DDEKQVREVVTDFIQALEEGDEKRVRQLIDPNASADVGDRKYHGREQVAEMVREQMDQVDHIEFTLRKVEIQGEEVVVRVEVVLNHNGQEKQIHMTLIFVVKNGHLQLKEIHQD,1.37
5,DDEKRASKFAKKLVDAFKHGDPDRFSRMVDENVRFQVGDTQYHGREDAHNLMQELRDKVDHIHVRLTQLEVKGDKADVHMNLQYKHNGKNNDVRMRAVATDNNGRLLVTHFRIN,1.26
6,DDEKREKILKTFVDLFMNGDEEDIQRMMDENARASVGDKTYHGQEQVNKALKEIRDQFDRVEVKHIHVSGDKFRINMVINVNGKHVHVEVEISVHNGRIHEISFDPEHLTKMRN,0.444
7,DDEKRKDILRKIKENWKRNDHDFFKDMADPNVRAKVGDKLLHGREELEKELREFKKRADHVEIKHVDVTGDNAEVEADIDINGQKRVMVFQVEVHNGKIKHIELDPDDQRKVQK,0.145
8,DDEKTRDLLRKAMRAFITGDPDTLRHLFDKDARARYGDKEVRGREQIQHQLREIRSTVDHIDVKDMEVQGNHATLSLSLVVNGREVKVRVKIVVHNGRAQSVTMDPHDIRKLNS,1.29
9,DDEKVAEQIMNEVLTAIKNNDPQEAADNMDKDARAEVGDNDLTGRERLSKWWVTMANRADHITAHVDSVDEQGDKIHVVWKYTADINGQQVSKDIKFVVVRQNGRVKIKRIKND,1.11
10,DDEKVKSFMKNVVRAWKHNNPDEMAKLADPNARAHVGDKEVHGRHQVKTMITEQLTRVDHVDIRHVHANGDKITIHATLNVNGRTRSVKIEIRFDNGKITDIRMDPDAVKEIKK,0.199
11,DDEKVQKAAHNLIQAIKSGDEDRMRKLMDPNVRVVVGDKEVSGSDDAARFLRELRERVDHVEVKRVEAHNGRIKIDAVNRHNGHDHRFVLEAEVHNGTVKQIRIKEQ,1.43
12,DDELEEQVKKWLENLKNNNEEELQKQMDPNAKMQYGDKEYHGMHDALKTLAQEDRELRYNVRIISINVQGDRVHITRRINRDHDGRPSQKKYKLNLRLHNGRNQHFREQEDG,-0.102
13,DDELEKLITRWLEALDTNNPRQVKSNIDPNVHIEIGDKKIHGREQAMKDIHHRLERMRVEFDLKSLDSHGERASFRFRLHIRFNGRPIDIDAEVSVQVHNGKFKKMSQRISEEQAKQMSE,0.403
14,DDELHKLAEEFVTALQKGDPDRANSLFDPNAKFVVGDEVLHGREDFEKWLDELKHQMRIQFESVKIDKRPGRIIIDNVFRVHVNGKPDQIRIEIDIQVHNGKIKEVIYRMDPDKFREVMS,1.3
15,DDELKRIVHQLMEALKHGDNDQWRKNVDPNVSVKIGDKELHGREEFARQIQRIKRELHLEIDIHDVKVKNGRADLDMTETRSENGQPETNRLRISYVIDNGKFKSVTLNIKQ,0.222
16,DDELQHQVERFLTNIEHGDPDKIQRQVDKDVNARVGDETLHGSDQLKDTWHDTQRQMRFSFHVTKYDAREGHVDITAHITMDRNGKPESRQVRVRFNINNGKLREVDMQLRG,1.04
17,DDELRHVAERFVQALDEGDPNELKEMADPNARMQVGDKYITGMETFVKHERKKMEKIRIEVVDFKANVNGDKVQVHFDVRFEVNGQPRRYSYVVIFQFRNGRISHVNVQVDPRQLKKNES,1.04
18,DDELVRSAEHLFKVWQDGNPDEAKRYMDPNAELKVGDKTVHGRDDANRWVEQLQRELRYHFTINNVERQGNTVVIKATATEHHNGKPKTYSVDIEIEAQNGKVKLVIIRING,-0.09
19,DDEMIRVYREMQKALQDNDPERAKELMDPNAKLRYGDKVFHGREEFAKDMERRHHESRVQIRHLKVEDQGEKAVARFNEVNNSNGRPNSKSVSVELEAHNGKLVHVRAQDTK,-0.172
20,DDEMKKVVSRFVEAEKQGNPEDLKRNADPNVKVQVGDKTVNGRDKWATDLHKRRRDIDVEREYKSVHLTGDHLTMDVEAVYNVNGTPHKMRVTLRVVAHNGKIKKMHVQLSEEELRRLDR,0.229
21,DDENMSAFERWLHAVETGNPQKVKEQMDENAKLDVGEKDVTGMDEIRRQLEKEMKRMRVTIQRYDLQVHNGQVVVRQTVVNKNDGQPRRRTNVVHVDIRNGRIQRIIQRDDG,0.42
22,DDENNKILEEYLKAEQTNDPDRAVELMRDDVRMQVGDHRVHGREEVRKRIHQIKDTMRVQIDDLRVTVKGESVVANLDAQVRINGQPVRFRASVRADFHNGKIVHHRVHISEEQQERLKK,0.272
23,DDENQQHFAEKMATAVIKNDPDEIVRLADPNVQVQVGEKEVHGREEVHELMEELKDQADHVHLVSVHVSNGQVNIVVDVVVNGKRLRVTITVKFNNGKVRYIRVDPEFQRKMDK,-0.095
24,DDENRHMAEEMMQIFKHGDHDRHRQLIDPNVKVKIGDKEYHGMEKLVQRHKEEVDQIRFEVKTVSVHNQGDKLKVEWRYVADFNGRPHDVRDDYTIDVRNGKVRSIDYNVDPRELETLLR,-0.128
25,DDENRKRAEEWLQAVQEGNEHQVMELADPNVRFVIGDKTLHGREQLSEWVKRVHDQMRFSVEIKHVRVHGDKVLITVRHTANVNGKPFDDTLIIKVVINNGKFQRIELRVDPEKLKHLKT,1.01

row,Sequence,protease stability score
1,DDENRRFAERLMKVWRTNNEEDARTLFDKDVRFEIGDKVLHGKEQYAQSVRDIKKEMRFDARVRSIDVRGEKVVVLYDVEVQHNGRPQTKQVIFIANVHNGRIKEARVEDTQ,0.271
2,DDENRRRAETWFRNIQDNNPELIRHMFDEDARLEVGDKEIQGREHFEEQMKRDVEEMRLDLKVKSVEVRGNDVTVKAEAQDDRNGHPRNFTFRIRIRYHNGRVKHVHMDRQG,0.092
3,DDENVEIAEKIVKAEQSGDEDHLRELADPNARFHVGDKHVSGMEKFLKDFQHEFEELRFSIKVTSVTQSNGKVHMTATATRHRNGRPDSFTANRRFLFHNGKAKEVSQDNRK,-0.352
4,DDENVKKFAKELLHVIKDNDEDRFRKLAPPNVEAQYGDKTIRGRESAATQFSRVATRIDHVRLEHMTVQGEHVVMKMEVDVNGRNKQLRIVFHVRNGKITSFSMDPEAQRVNSQ,0.594
5,DDEQANEIISIMETGDPDKLSNMADENAKIVIGDTQIHGREDYERVATILYKQIDHHHFEHLTFTGDKVVIVWQYVVNGKQVRQRVKFDVHNGRLKHMRMEFTDPEELKIVEEILS,1.59
6,DDEQDAREFVKKFVDVMRENNPRELVKMADPNVKVDVGDHRLNGREDLERKRKREADRADHIDVKVTKLHVNGDTVQAHFSFTIRHDGRNERKSETIIARKHNGRVKIKSIKNS,-0.13
7,DDEQDKKAEKLVNTGNFHDMANNADPNARIVVGDKRFHGREQFHTFMESLQTTIDHLQIKDIKRRPNHVEADVVAEVNGRRITFVILMVVHNGRIKNVEFKFRDEEDERVMEQILR,0.947
8,DDEQDRDFVQTMREAIDRGDFKKIARMADKDVKVVIGDKNVTGRETLTHLLKDFVDKFDHIRVRHIDAHNGSVDIDMTADHNGDKRQYRIRVNVSNGQVKEFQLKQT,0.453
9,DDEQINEFVKVMKTNDFKRLMDQADPNVSVSIGNFTVKGDKQAQKAARDLEEQADHIQIDSLTAHDGRLDVTLQMVFNGRDIRMSIKAEAHNGRLKSMKFQATSEEIEKILDEVLR,-0.142
10,DDEQLKKLAQKFADNMQSGNEEEFDRMAPPEVRVQIGDKTYKGRDKVKEMMKRFRTTADHVRIESFEAHNGQITFNVIIQVNGKSHRIRLRIQARNGQVKQFDLNPDDQRKVEK,0.18
11,DDEQRKDLAHDFLHAWKKGDEKLFDNLVDENVSAQYGDKTYHGRESISTFVRNYKKRADHFRVHDMQLSNGSVRMDVEAEVNGVDVRVTFHVFFHNGRVKSLQQDFTDEDVKRRHES,0.604
12,DDEREREFEHFLRVVEEGNPEELKKLLDPNVRIEYGDKVIHGREEYAKRVHETVKELRFSMSIHDVKVNGDTVEVDATSSWTHNGQPNKDQNVLVIRFHNGKFKEIRHDKDR,0.607
13,DDERITELVTRFEKALQRGDNDEMERLMDPNARVRYGDKEYHGREDIKRALKEEKKRVDHFRLESVRWKNGHVEIFMKFTVNGRTEHRVFDIQLHNGRMKEMELTTS,1.15
14,DDERRARDLFKEHEDNWKNGNHEELVKQADEDARVDVGDKELHGRDDLRRENRRIVEQADHIRFDLKSLDVQGDKVTFDFVVKVDINGRTETRRVQEKFVVTNGRIRLKEATEG,-0.009
15,DDERRKKQVDTFNKAFEKGDESQIRKLFDKDAKARVGDKHYHGKEQVARMVKTFVHQVDHMQFKSVRVQGDKVRADVTVKVNGNTARFTIEIRIHNGKIQHASIDPRNMEKMKR,-0.073
16,DDERVQEQAKDFLKVVKEGNEEDLTKLFDPNASARYGDKTYHGREKVATAVAELAKKVDHFRVEHVEASGNKLHIDAYFQVNGNRRRIRFFIEIRNGKINTVIITSG,1.62
17,DDESRVRKMLEDMREQLQTGNPERVADMADPNVEVTVGDKTLRGREDLVKYWRSIAENVDRVDLKLRSLNISGDQISVDFVERNNDNGQTRKHDASARFQKDNGRILATHIHVQ,0.119
18,DDETAEKLAREFIEALKEGNEEQVRRLVDENVRVEVGDTTFHGREEAAKFAKEFKQHADHVEIRDVSVHGDKVELNLVLNVNGRERDVVVIVRVENGKIKEFQYREN,1.22
19,DDETLNELVETLMKAWNQGNPDDLNKLIDKDAKIIIGETHIHGRDEFRKWADTLHRQVDHYQFDSVTAHNGRVRMHMKLRVNGVNVVVHVKVQAHNGRIKRMRMRWRNEEDKKKVEQ,1.39
20,DDEVAEELRDIVHNGNWEEMSRNADKNAKVTIGDKQVHGRESAVRVLRIWQKQFDHIQIDRIDKHPGRVRWNARANVNGREVDYHARIHVKNGKVTDVTMEFTDPSQKRQFNRDLN,0.205
21,DDEVAKTIVKNWKTGDPDRLNEMFDPNARIRIGNQDVHGHEEVKKMLHKFFTAIDSIDIKRVSVHNGRIDIDVRAHFNGRSFRFVLHIVVEDGRVKHMEMKVTDPDSQRELEKHQK,1.35
22,DDEVFRRFQEALDIVKKGDPKKFEEMADPNARVKVGDKQLHGRETIAKDIADHMKEMKIEWRVKKLTTNEDHVNVTERWQQKHDGRPEDRERRARVRARGDKLKNHEVETDG,0.118
23,DDEVKERVTQLLTAMLTNNPDKVQELIDPNAKVHVGDKRVQGEDDIKRVVEEENRQWRMRIKSVSVHVQGEKVRLDIEFVVHVNGEPQNDRVIMELTVHNGRVTDLQLQVDPRKLQERRN,0.966
24,DDEVKKEAEKMVEIIMHGDPDKVRNQFDPNAKMQIGDKELHGQEQLRDHLKRMNDHLRIDLKSVSARLDGNHIHLDVLFVKEHNGKPEEQRVEFVADIHNGKIVSASVEHVD,0.54
25,DDEVKKFAEKFVTNLENNNPQELKSMADPNAKFEVGNKSVHGMDEYVRQVRERNEHMRFDVKRVQIRVNGNQIIINVHLHVNVNGRPVDLSYEVDINFDNGKIKYVRLDVDEDQEKRMTG,1.1
